# From publication PMC9986714
# Experiments:
# [1] = molecular target: Bovine cathepsin C (bovine)
# [2] = molecular target: Bovine cathepsin H (bovine)
# [3] = molecular target: Carica papaya papain (Carica papaya) (UniProt P00784)
# Cathepsin F (human) = Cathepsin F (human) (UniProt Q9UBX1)
# Cathepsin S (human) = Cathepsin S (human) (UniProt P25774)
# Cathepsin X (human) = Cathepsin X (human) (UniProt Q9UBR2)
# [4] = molecular target: Fasciola hepatica cathepsin L1 (Fasciola hepatica)
# [5] = molecular target: Fasciola hepatica cathepsin L2 (Fasciola hepatica)
# [6] = molecular target: Fasciola hepatica cathepsin L3 (Fasciola hepatica)
# [7] = molecular target: Human cathepsin K (human) (UniProt P43235)
# Human cathepsin K (human), sequence (P43235 115-329): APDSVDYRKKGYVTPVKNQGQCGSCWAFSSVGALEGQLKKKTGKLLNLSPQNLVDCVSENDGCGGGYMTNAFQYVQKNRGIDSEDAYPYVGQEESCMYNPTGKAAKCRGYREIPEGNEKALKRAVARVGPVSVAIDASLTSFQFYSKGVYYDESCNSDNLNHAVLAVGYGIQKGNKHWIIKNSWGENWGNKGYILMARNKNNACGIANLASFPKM
# [8] = molecular target: Human cathepsin L (human)
# [9] = molecular target: Human cathepsin V (human) (UniProt O60911)
# Human cathepsin V (human), sequence (O60911 114-334): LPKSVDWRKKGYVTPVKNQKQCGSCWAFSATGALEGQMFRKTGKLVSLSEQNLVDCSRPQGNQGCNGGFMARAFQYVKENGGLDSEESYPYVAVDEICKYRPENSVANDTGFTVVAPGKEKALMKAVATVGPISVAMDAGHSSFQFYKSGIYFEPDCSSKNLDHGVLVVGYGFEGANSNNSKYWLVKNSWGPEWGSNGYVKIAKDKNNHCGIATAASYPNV
# Cathepsin F (human), sequence (Q9UBX1 271-484): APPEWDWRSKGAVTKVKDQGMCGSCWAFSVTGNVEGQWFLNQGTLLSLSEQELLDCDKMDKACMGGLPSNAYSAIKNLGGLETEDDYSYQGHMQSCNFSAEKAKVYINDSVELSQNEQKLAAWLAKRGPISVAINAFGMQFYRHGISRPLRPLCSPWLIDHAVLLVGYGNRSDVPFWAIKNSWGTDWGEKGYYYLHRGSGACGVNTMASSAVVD
# Cathepsin X (human), sequence (Q9UBR2 62-303): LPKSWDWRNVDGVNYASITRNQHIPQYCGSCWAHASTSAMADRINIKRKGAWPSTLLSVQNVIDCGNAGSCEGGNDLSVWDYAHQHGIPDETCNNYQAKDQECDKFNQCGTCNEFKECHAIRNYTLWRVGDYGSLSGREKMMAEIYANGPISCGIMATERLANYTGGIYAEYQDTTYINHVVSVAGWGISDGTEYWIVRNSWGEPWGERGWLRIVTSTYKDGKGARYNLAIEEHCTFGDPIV
# Cathepsin S (human), sequence (P25774 115-331): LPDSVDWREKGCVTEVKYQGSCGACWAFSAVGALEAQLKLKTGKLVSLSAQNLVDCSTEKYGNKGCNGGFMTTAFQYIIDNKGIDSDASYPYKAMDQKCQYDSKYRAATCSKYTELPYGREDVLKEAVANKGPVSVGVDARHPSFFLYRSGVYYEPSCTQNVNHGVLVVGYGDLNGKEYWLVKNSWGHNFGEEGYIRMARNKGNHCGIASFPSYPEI
# Carica papaya papain (Carica papaya), sequence (P00784 134-345): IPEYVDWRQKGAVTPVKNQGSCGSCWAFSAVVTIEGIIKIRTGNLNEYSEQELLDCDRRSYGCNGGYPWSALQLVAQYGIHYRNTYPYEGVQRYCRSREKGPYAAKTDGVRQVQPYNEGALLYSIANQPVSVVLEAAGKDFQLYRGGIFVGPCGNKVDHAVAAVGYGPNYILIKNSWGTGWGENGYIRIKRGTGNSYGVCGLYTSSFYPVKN
substance,measurement,setting,value
"Fasciola hepatica cystatin-like stefin 2 (FhCyLS-2), recombinant (natural protein)","IC50 of inhibition of protease activity (kinetic assay, 130 μM H-Gly-Arg-AMC, 0.4 nM cathepsin C, 100 mM Na acetate pH 5.5 with 50 mM NaCl, 37 °C, 15 min preincubation)",[1],66 nM
same,"IC50 of inhibition of protease activity (kinetic assay, 100 μM H-Arg-AMC, 1.9 nM cathepsin H, 50 mM MES pH 6.5, 37 °C, 15 min preincubation)",[2],2.5 nM
same,"IC50 of inhibition of protease activity (kinetic assay, 100 μM Z-Phe-Arg-AMC, 0.5 nM papain, 100 mM Na acetate pH 5.5, 37 °C, 15 min preincubation)",[3],1.1 nM
same,"IC50 of inhibition of protease activity (kinetic assay, 53 μM Z-Phe-Arg-AMC, 0.2 nM cathepsin B, 100 mM Na acetate pH 5.5, 37 °C, 15 min preincubation)",Cathepsin B (human),2.1 nM
same,"IC50 of inhibition of protease activity (kinetic assay, 27 μM Z-Phe-Arg-AMC, 1.2 nM cathepsin F, 100 mM Na acetate pH 5.5, 37 °C, 15 min preincubation)",Cathepsin F (human),49 nM
same,"IC50 of inhibition of protease activity (kinetic assay, 17 μM Z-Val-Val-Arg-AMC, 0.1 nM cathepsin S, 50 mM MES pH 6.5, 37 °C, 15 min preincubation)",Cathepsin S (human),1.1 nM
same,"IC50 of inhibition of protease activity (kinetic assay, 87 μM Abz-Phe-Arg-Phe(NO2)-OH, 1.2 nM cathepsin X, 100 mM Na acetate pH 5.0, 37 °C, 15 min preincubation)",Cathepsin X (human),8400 nM
same,"IC50 of inhibition of protease activity (kinetic assay, 20 μM Z-Phe-Arg-AMC, 2 nM FhCL1, 50 mM MES pH 5.5, 37 °C, 15 min preincubation)",[4],2.5 nM
same,"IC50 of inhibition of protease activity (kinetic assay, 20 μM Z-Phe-Arg-AMC, 5 nM FhCL2, 50 mM MES pH 6.0, 37 °C, 15 min preincubation)",[5],10 nM
same,"IC50 of inhibition of protease activity (kinetic assay, 20 μM Z-Gly-Pro-Arg-AMC, 6 nM FhCL3, 50 mM MES pH 5.5, 37 °C, 15 min preincubation)",[6],18 nM
same,"IC50 of inhibition of protease activity (kinetic assay, 4.3 μM Z-Phe-Arg-AMC, 0.2 nM cathepsin K, 100 mM Na acetate pH 5.5, 37 °C, 15 min preincubation)",[7],8.6 nM
same,"IC50 of inhibition of protease activity (kinetic assay, 2.5 μM Z-Phe-Arg-AMC, 0.2 nM cathepsin L, 100 mM Na acetate pH 5.5, 37 °C, 15 min preincubation)",[8],0.92 nM
same,"IC50 of inhibition of protease activity (kinetic assay, 3.6 μM Z-Phe-Arg-AMC, 0.1 nM cathepsin V, 100 mM Na acetate pH 5.5, 37 °C, 15 min preincubation)",[9],5.9 nM
